Data from paper PMC13038408.

Biological target: RSV90 IgG (human)
Assay: SPR

RSV90 IgG (human), sequence (heavy, as listed by the source, chain 1 of 2): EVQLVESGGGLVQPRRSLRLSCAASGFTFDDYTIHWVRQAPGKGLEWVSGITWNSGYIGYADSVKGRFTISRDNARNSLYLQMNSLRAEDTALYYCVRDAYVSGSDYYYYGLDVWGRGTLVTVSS
RSV90 IgG (human), sequence (light, as listed by the source, chain 2 of 2): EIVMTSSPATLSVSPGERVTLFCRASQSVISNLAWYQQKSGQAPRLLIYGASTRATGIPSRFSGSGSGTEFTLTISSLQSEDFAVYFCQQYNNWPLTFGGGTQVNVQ

B1: RSVF-multi-3 (designed binder)
chain: DDLVDIFLRAFAKAAKVTRFDKNRGIIKTFSEEETEKLFKSLTEEEVEKIESALKSTNKAVVVLGDGDIEIEIDLDKLYALINDLDISNDQKKEMSNNFFEYLRKIAKK
Kd: > 10 µM

B2: RSVF-multi-4 (designed binder)
chain: MKLVIARVKSPKVKRLSEEDIEKIKSALKSTNKAVVTIKDENGEEIEVEVRLLTLEEALKYINDLPISNDAKKLMSNNIHKALEPGRTVVFGPEGCEERDKNRGIIKTFSTDVKLDETYFFFRVE
Kd: > 10 µM
